Measurements reported in patent publication US20080026996A1, “Selective Vpac2 Receptor Reptide Agonists” (ELI LILLY AND COMPANY, priority 2004, published 2008).
Where no end group is shown, it is not given here. [ ]: non-standard residue; d: D form. The star is where a group is joined. Hexanoyl = CCCCCC(=O)*; Aib = CC(C)(N)C(=O)O

T1: human VPAC2 receptor (human, UniProt P41587 24-438)
T1 sequence (looked up): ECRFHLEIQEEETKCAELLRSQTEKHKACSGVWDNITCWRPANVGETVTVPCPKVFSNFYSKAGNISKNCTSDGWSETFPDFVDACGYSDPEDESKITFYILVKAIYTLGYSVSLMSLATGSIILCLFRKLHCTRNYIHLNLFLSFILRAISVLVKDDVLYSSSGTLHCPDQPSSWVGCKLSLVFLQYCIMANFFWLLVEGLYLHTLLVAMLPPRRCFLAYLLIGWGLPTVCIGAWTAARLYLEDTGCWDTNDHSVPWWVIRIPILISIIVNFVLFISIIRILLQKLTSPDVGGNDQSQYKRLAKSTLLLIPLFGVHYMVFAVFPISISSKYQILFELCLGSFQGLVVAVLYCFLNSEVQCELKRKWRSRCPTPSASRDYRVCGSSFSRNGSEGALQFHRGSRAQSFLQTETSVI


Target: T1, human VPAC2 receptor
Assay: cell-based or functional assay

Row | Binder | EC50 cAMP, Alpha Screen [nM] | EC50 cAMP, DiscoveRx [nM]
1 | Hexanoyl-HSDAVFTDNYTRLRKQVAAKKYLQS[Aib]KNKRYGGPSSGAPPPS (ends and bridges not checked) [P188] | 0.32 | 
2 | Hexanoyl-HSDAVFTDNYTRLRK(Ac)QVAAK(Ac)KYLQSIKNKRYGGPSSGAPPPS [P193] | 0.18 | 
3 | Hexanoyl-HSDAVFTDNYTRLRKQVAAKKYLQSVKNKRYGGPSSGAPPPS [P109] | 0.22 | 
4 | Hexanoyl-HSDAVFTDNYTRLRKQVAAIKYLQSIKNKRYGGPSSGAPPPS [P149] | 0.41 | 
5 | Hexanoyl-HSDAVFTDNYTRLRKQVAAKKVLQSIKNKRYGGPSSGAPPPS [P134] | 5.47 | 
6 | Hexanoyl-HSDAVFTDNYTRLRKQVAAKKYLQSYKNKRYGGPSSGAPPPS [P111] | 0.34 | 
7 | Hexanoyl-HSDAVFTDNYTRLRKQVAAKKYLQIIKNKRYGGPSSGAPPPS [P113] | 0.26 | 
8 | Hexanoyl-HSDAVFTDNYTRLRKQVAAKKLLQSIKNKRYGGPSSGAPPPS [P132] | 3.1 | 
9 | Hexanoyl-HSDAVFTDNYTRLRKQVAAKKYLQSLKNKRYGGPSSGAPPPS [P107] | 0.12 | 
10 | Hexanoyl-HSDAVFTDNYTRLRKQVAAKKYLQSFKNKRYGGPSSGAPPPS [P106] | 0.16 | 
11 | HSDAVFTDNYTRLLAKVAAKKYLQSIKNKRYGGPSSGAPPPS [P89] | 1.23 | 0.7
12 | Hexanoyl-HSDAVFTDNYTRLRRQVAARRYLQSIRNRRYGGPSSGAPPPS [P98] | 0.15 | 
13 | Hexanoyl-HSDAVFTENYTRLRKQVAAKKYLQSIKNKRYGGPSSGAPPPS [P159] | 0.17 | 
14 | Hexanoyl-HSDAVFTDNYTRLRKQVAAKKYLQFIKNKRYGGPSSGAPPPS [P112] | 0.16 | 
15 | Hexanoyl-HSDAVFTDNYTKLKKQVAAKKYLQSIKNKKYGGPSSGAPPPS [P103] | 0.12 | 
16 | Hexanoyl-HSDAVFTDNYTRLRAQVAAQKYLQSIKNKRYGGPSSGAPPPS [P138] | 0.45 | 
17 | Hexanoyl-HSDAVFTDNYTRLRKQVAAWKYLQSIKNKRYGGPSSGAPPPS [P153] | 0.11 | 
18 | Hexanoyl-HVDAVFTDNYTRLRKQVAAKKYLQSIKNKRYGGPSSGAPPPS [P99] | 0.14 | 
19 | Hexanoyl-HSDAVFTDNYTRLRKQVAAKKYLQNIKNKRYGGPSSGAPPPS [P125] | 0.14 | 
20 | Hexanoyl-HSDAVFTDNYTRLRKQVAAKKYLQWIKNKRYGGPSSGAPPPS [P117] | 0.2 | 
21 | Hexanoyl-HSDAVFTDNYTRLRKQVAAKKYLQSWKNKRYGGPSSGAPPPS [P110] | 0.13 | 
22 | Hexanoyl-HSDAVFTDNYTRLRKQVAAKKYLQSTKNKRYGGPSSGAPPPS [P108] | 0.27 | 
23 | Hexanoyl-HSDAVFTDNYTRLRKQVAAKKFLQSIKNKRYGGPSSGAPPPS [P130] | 0.77 | 
24 | Hexanoyl-HSDAVFTDNYTRLRKQVAAKKWLQSIKNKRYGGPSSGAPPPS [P129] | 0.49 | 

Row | Binder | EC50 cAMP, Alpha Screen [nM] | EC50 cAMP, DiscoveRx [nM]
25 | Hexanoyl-HSDAVFTDNYTRLRKQVAAKKYLQYIKNKRYGGPSSGAPPPS [P127] | 0.22 | 
26 | Hexanoyl-HSDAVFTDNYTRLRKQVAAKKILQSIKNKRYGGPSSGAPPPS [P133] | 2.7 | 
27 | Hexanoyl-HSDAVFTDNYTRLRKQVAAKKYLQQIKNKRYGGPSSGAPPPS [P124] | 0.09 | 
28 | Hexanoyl-HSDAVFTKNYTRLRKQVAAKKYLQSIKNKRYGGPSSGAPPPS [P160] | 13.2 | 
29 | Hexanoyl-HSDAVFTDNYTRLRKQVALKKYLQSIKNKRYGGPSSGAPPPS [P155] | 0.24 | 
30 | Hexanoyl-HSDAVFTANYTRLRKQVAAKKYLQSIKNKRYGGPSSGAPPPS [P158] | 0.11 | 
31 | Hexanoyl-HSDAVFTDNYTRLRKQVAALKYLQSIKNKRYGGPSSGAPPPS [P151] | 0.07 | 
32 | Hexanoyl-HSDAVFTDNYTRLRKQVAAVKYLQSIKNKRYGGPSSGAPPPS [P146] | 0.17 | 
33 | Hexanoyl-HSDAVFTDNYTRLRAQVAAKKYLQSIKNKRYGGPSSGAPPPS [P139] | 0.2 | 
34 | Hexanoyl-HSDAVFTDNYTRLKAQVAAKKYLQSIKNKRYGGPSSGAPPPS [P141] | 0.72 | 
35 | Hexanoyl-H[dA]DAVFTDNYTRLRKQVAAKKYLQSIKNKRYGGPSSGAPPPS [P101] | 0.21 | 
36 | HSDAVFTDNYTRAAAKVAAKKYLQSIKNKRYGGPSSGAPPPS [P88] | 1720 | > 1000
37 | Hexanoyl-HSDAVFTDNYTRLRKQVAAKKYLQLIKNKRYGGPSSGAPPPS [P114] | 0.14 | 
38 | HSDGVFTDNYTRLRKQVAAKKYLQSIKNKRYGGPSSGAPPPS [P102] | 27.4 | 
39 | Hexanoyl-HSDAVFTDNYTRLRKQVAAFKYLQSIKNKRYGGPSSGAPPPS [P148] | 0.1 | 
40 | Hexanoyl-HSDAVFTDNYTRLRKQVAATKYLQSIKNKRYGGPSSGAPPPS [P152] | 0.17 | 
41 | Hexanoyl-HSDAVFTDNYTRLRKQVAAYKYLQSIKNKRYGGPSSGAPPPS [P147] | 0.13 | 
42 | Hexanoyl-HSDAVFTDNYTRLRKQVAAKKTLQSIKNKRYGGPSSGAPPPS [P131] | 22.3 | 
43 | HSDAVFTDNYTRAKAKVAAKKYLQSIKNKRYGGPSSGAPPPS [P94] | 696 | > 1000
44 | HSDAVFTDNYTREKEKVAAKKYLQSIKNKRYGGPSSGAPPPS [P87] | > 10000 | 
45 | Hexanoyl-HSDAVFTDNYTRLRKQVAAKKYLQVIKNKRYGGPSSGAPPPS [P116] | 0.12 | 
46 | Hexanoyl-HSDAVFTDNYTRLRAQLAAQKYLQSIKNKRYGGPSSGAPPPS [P142] | 0.15 | 
47 | MHSDAVFTDQYTRLRKQVAAKKYLQSIKQKRYGGPSSGAPPPS (N-terminal methionine added (M-)) [P100] | 0.28 | 
48 | IHSDAVFTDNYTRLRKQVAAKKYLQSIKNKRYGGPSSGAPPPS (N-terminal isoleucine added (I-)) [P105] | 8.33 | 
